According to article doi:10.1101/671792:

Biological target: polymerization-deficient p62 PB1 domain D69A/D73A (human) (UniProt Q13501)
Assay: ITC

B1: MEKK3 PB1 domain, residues 43-127 (ITC) (domain or fragment)
chain: SDVRIKFEHNGERRIIAFSRPVKYEDVEHKVTTVFGQPLDLHYMNNELSILLKNQDDLDKAIDILDRSSSMKSLRILLLSQDRNH
- Kd: 26.8 nM
